Experimental data: paper PMC2094093

Molecular target: Human Hsp90β (human) (UniProt P08238)
Experiment: SEC

Sequence of Human Hsp90β, P08238 1-724 (natural protein; other documents disagree on this pair) (P08238 whole entry): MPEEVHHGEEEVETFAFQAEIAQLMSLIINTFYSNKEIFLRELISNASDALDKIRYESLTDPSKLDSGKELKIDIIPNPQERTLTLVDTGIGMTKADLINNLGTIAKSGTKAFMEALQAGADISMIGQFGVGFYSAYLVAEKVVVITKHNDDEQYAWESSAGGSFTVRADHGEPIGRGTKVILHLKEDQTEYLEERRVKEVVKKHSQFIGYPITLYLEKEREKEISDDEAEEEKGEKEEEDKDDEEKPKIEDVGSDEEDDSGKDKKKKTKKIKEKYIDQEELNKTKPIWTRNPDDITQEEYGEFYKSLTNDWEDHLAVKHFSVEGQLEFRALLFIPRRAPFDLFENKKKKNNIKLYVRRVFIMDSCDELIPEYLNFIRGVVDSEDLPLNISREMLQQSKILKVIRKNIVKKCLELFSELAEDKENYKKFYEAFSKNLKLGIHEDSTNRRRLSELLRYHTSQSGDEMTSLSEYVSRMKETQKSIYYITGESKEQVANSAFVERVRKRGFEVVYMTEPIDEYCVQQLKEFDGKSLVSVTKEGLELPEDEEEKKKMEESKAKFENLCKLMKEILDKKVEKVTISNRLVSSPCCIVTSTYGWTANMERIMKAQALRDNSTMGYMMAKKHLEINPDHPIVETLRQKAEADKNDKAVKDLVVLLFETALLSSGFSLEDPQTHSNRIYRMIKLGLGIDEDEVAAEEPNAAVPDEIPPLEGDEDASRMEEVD

stoichiometry N: 2
Substance: Human Hsp90β, P08238 1-724 (natural protein; other documents disagree on this pair)
